Assays:
crystal structure = molecular target: the molecule itself; assay: crystal structure
[1] = molecular target: T1, KorB (wild type), C-terminally His-tagged (plasmid RK2, UniProt P07674 1-358); assay: ITC
T1 sequence: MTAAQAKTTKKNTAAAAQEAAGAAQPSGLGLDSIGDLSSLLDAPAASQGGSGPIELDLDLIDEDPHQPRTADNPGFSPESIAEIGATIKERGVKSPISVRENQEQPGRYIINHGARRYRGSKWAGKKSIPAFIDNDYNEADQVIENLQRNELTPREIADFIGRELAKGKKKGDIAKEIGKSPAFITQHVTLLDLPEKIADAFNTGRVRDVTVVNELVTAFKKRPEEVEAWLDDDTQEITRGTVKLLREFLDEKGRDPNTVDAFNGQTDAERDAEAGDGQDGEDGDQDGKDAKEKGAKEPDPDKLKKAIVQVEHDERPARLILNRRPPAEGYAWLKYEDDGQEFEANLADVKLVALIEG

B1: KorA (wild type), C-terminally His-tagged (natural protein)
chain: MKKRLTESQFQEAIQGLEVGQQTIEIARGVLVDGKPQATFATSLGLTRGAVSQAVHRVWAAFEDKNLPEGYARVTAVLPEHQAYIVRKWEADAKKKQETKR
For B1, the binding result (crystal structure) was “binds” and the Kd [1] was 4.2 ± 0.5 µM.

From article doi:10.1101/2024.02.16.579611 (bioRxiv, 2024)
